Patent US20190300590A1
*1 amine or outer side, *2 acyl side, *3 side chain or, on linkers, in order; H or OH if unused. Bridges are numbered along the chain shown (N, C = ends). Primed or numbered codes have the meaning given here. [ ]: non-standard residue; d: D form. Phe(4-(2-acetylaminoethoxy))″ = 4-(2-acetylaminoethoxy)phenylalanine, CC(=O)NCCOc1ccc(C[C@H](N[*:1])C(=O)[*:2])cc1; Phe(4-OMe)(4) = O-methyl-L-tyrosine, COc1ccc(C[C@H](N[*:1])C(=O)[*:2])cc1; 2Nal = N[C@@H](Cc1ccc2ccccc2c1)C(=O)O; AEF = NCCOc1ccc(C[C@H](N)C(=O)O)cc1; Cit = NC(=O)NCCC[C@H](N)C(=O)O; αMeOrn = C[C@](N)(CCCN)C(=O)O; Pen = CC(C)(S)[C@H](N)C(=O)O; αMeK = C[C@](N)(CCCCN)C(=O)O; Orn = NCCC[C@H](N)C(=O)O; Dab = NCC[C@H](N)C(=O)O; Abu = CC[C@H](N)C(=O)O; Dap = NC[C@H](N)C(=O)O; Aib = CC(C)(N)C(=O)O

B1: [Ac-[Pen]-NTWQ-[Pen]-[Phe(4-CONH2)]-[2-Nal]-[Aib]-KNN-NH2]2DIG (peptide)
peptide: XNTWQXFXXKNN
modifications: Ac; Pen-Pen disulfide; Phe(4-CONH2); 2-Nal; Aib; NH2; DIG linker joins the two subunits
B2: [Ac-[Pen]-NTWQ-[Pen]-[Phe(4-CONH2)]-[2-Nal]-[Acvc]-KNN-NH2]2DIG (peptide)
peptide: XNTWQXFXXKNN
modifications: Ac; Pen-Pen disulfide; Phe(4-CONH2); 2-Nal; Acvc; NH2; DIG linker joins the two subunits
B3: Ac-[Pen]-QTWQ-[Pen]-[2-Nal]-[2-Nal]-[α-MeLys]-ENG-NH2 (peptide)
peptide: Ac-[Pen]QTWQ[Pen][2Nal][2Nal][αMeK]ENG-NH2
modifications: disulfide 1-6
SMILES: CC(=O)N[C@@H]1C(=O)N[C@@H](CCC(N)=O)C(=O)N[C@@H]([C@@H](C)O)C(=O)N[C@@H](Cc2c[nH]c3ccccc23)C(=O)N[C@@H](CCC(N)=O)C(=O)N[C@H](C(=O)N[C@@H](Cc2ccc3ccccc3c2)C(=O)N[C@@H](Cc2ccc3ccccc3c2)C(=O)N[C@@](C)(CCCCN)C(=O)N[C@@H](CCC(=O)O)C(=O)N[C@@H](CC(N)=O)C(=O)NCC(N)=O)C(C)(C)SSC1(C)C

Target: IL23R_huFC (human) (UniProt Q5VWK5)
Test: IL23-IL23R competitive binding ELISA
Target sequence in this assay (Q5VWK5 24-353 limits assumed): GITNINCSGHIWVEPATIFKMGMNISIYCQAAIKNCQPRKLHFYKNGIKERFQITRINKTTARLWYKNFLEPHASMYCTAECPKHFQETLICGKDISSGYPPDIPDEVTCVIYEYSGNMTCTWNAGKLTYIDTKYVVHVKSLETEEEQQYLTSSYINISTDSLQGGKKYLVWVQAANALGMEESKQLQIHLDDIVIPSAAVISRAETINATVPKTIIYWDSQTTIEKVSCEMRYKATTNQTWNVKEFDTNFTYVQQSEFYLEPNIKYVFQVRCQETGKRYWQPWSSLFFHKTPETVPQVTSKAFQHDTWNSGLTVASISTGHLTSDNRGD

IC50 [nM] | Binder
< 10 | XQTWQXFXXENN (Ac; Pen-Pen disulfide; Phe[4-(2-aminoethoxy)]; 2-Nal; Aib; NH2) [Ac-[Pen]-QTWQ-[Pen]-[Phe[4-(2-aminoethoxy)]-[2-Nal]-[Aib]-ENN-NH2]
< 10 | B1
< 10 | XNTWQXFXXKNN (Ac; Pen-Pen disulfide; Phe[4-(2-aminoethoxy)]; 2-Nal; Aib; Lys(Ac); NH2) [Ac-[Pen]-NTWQ-[Pen]-[Phe[4-(2-aminoethoxy)]-[2-Nal]-[Aib]-[Lys(Ac)]-NN-NH2]
< 10 | B2
10 to 25 | XQTWQXFXXENN (Ac; Pen-Pen disulfide; Phe[4-(2-acetylaminoethoxy)]; 2-Nal; Aib; NH2) [Ac-[Pen]-QTWQ-[Pen]-[Phe[4-(2-acetylaminoethoxy)]-[2-Nal]-[Aib]-ENN-NH2]
25 to 100 | XQTWQXYXXENG (Ac; Pen-Pen disulfide; 2-Nal; α-MeOrn; NH2) [Ac-[Pen]-QTWQ-[Pen]-Y-[2-Nal]-[α-MeOrn]-ENG-NH2]
100 to 1000 | XQTWQXFXXKNG (Ac; Pen-Pen disulfide; Phe(4-OMe); 2-Nal; α-MeOrn; Lys(Ac); NH2) [Ac-[Pen]-QTWQ-[Pen]-[Phe(4-OMe)]-[2-Nal]-[α-MeOrn]-[Lys(Ac)]-NG-NH2]
100 to 1000 | XQTWQXYXXENG (Ac; Pen-Pen disulfide; 1-Nal; α-MeOrn; NH2) [Ac-[Pen]-QTWQ-[Pen]-Y-[1-Nal]-[α-MeOrn]-ENG-NH2]
100 to 1000 | Ac-[Pen][αMeOrn]TWQ[Pen][AEF][2Nal][αMeK]ENG-NH2 (disulfide 1-6 (inferred)) [Ac-[Pen]-[α-MeOrn]-TWQ[Pen]-[Phe[4-(2-aminoethoxy)]-[2-Nal]-[α-MeLys]-ENG-NH2]
100 to 1000 | Ac-[Pen][αMeOrn](Ac)TWQ[Pen][Phe(4-(2-acetylaminoethoxy))″][2Nal][αMeK](Ac)ENG-NH2 (disulfide 1-6 (inferred)) [Ac-[Pen]-[α-MeOrn(Ac)]-TWQ-[Pen]-[Phe[4-(2-acetylaminoethoxy)]-[2-Nal]-[α-MeLys(Ac)]-ENG-NH2]
< 10 | Ac-[Pen][Dap]TWQ[Pen][AEF][2Nal][αMeK]ENG-NH2 (disulfide 1-6 (inferred)) [Ac-[Pen]-[Dap]-TWQ-[Pen]-[Phe[4-(2-aminoethoxy)]-[2-Nal]-[α-MeLys]-ENG-NH2]
< 10 | XQTWQXFXXKNN (Ac; Pen-Pen disulfide; Phe[4-(2-acetylaminoethoxy)]; 2-Nal; Aib; Lys(Ac); NH2) [Ac-[Pen]-QTWQ-[Pen]-[Phe[4-(2-acetylaminoethoxy)]-[2-Nal]-[Aib]-[Lys(Ac)]-NN-NH2]
< 10 | XQTWQXFXXKNN (Ac; Pen-Pen disulfide; Phe[4-(2-aminoethoxy)]; 2-Nal; Aib; Lys(Ac); NH2) [Ac-[Pen]-QTWQ-[Pen]-[Phe[4-(2-aminoethoxy)]-[2-Nal]-Aib-[Lys(Ac)]-NN-NH2]
10 to 25 | Ac-[Pen][Dap](Ac)TWQ[Pen][Phe(4-(2-acetylaminoethoxy))″][2Nal][αMeK](Ac)ENG-NH2 (disulfide 1-6 (inferred)) [Ac-[Pen]-Dap(Ac)TWQ-[Pen]-[Phe[4-(2-acetylaminoethoxy)]-[2-Nal]-[α-MeLys(Ac)]-ENG-NH2]
100 to 1000 | B3

Target: Rat IL-23R_huFC (rat) (UniProt F1LX96)
Test: rat IL-23R competitive binding ELISA

IC50 [nM] | Binder
10 to 25 | B1
< 10 | XNTWQXFXXKNN (Ac; Pen-Pen disulfide; Phe[4-(2-aminoethoxy)]; 2-Nal; Aib; Lys(Ac); NH2) [Ac-[Pen]-NTWQ-[Pen]-[Phe[4-(2-aminoethoxy)]-[2-Nal]-[Aib]-[Lys(Ac)]-NN-NH2]
10 to 25 | B2
100 to 1000 | XQTWQXYXXENG (Ac; Pen-Pen disulfide; 2-Nal; α-MeOrn; NH2) [Ac-[Pen]-QTWQ-[Pen]-Y-[2-Nal]-[α-MeOrn]-ENG-NH2]
100 to 1000 | XQTWQXYXXENG (Ac; Pen-Pen disulfide; 1-Nal; α-MeOrn; NH2) [Ac-[Pen]-QTWQ-[Pen]-Y-[1-Nal]-[α-MeOrn]-ENG-NH2]
25 to 100 | Ac-[Pen][Dap]TWQ[Pen][AEF][2Nal][αMeK]ENG-NH2 (disulfide 1-6 (inferred)) [Ac-[Pen]-[Dap]-TWQ-[Pen]-[Phe[4-(2-aminoethoxy)]-[2-Nal]-[α-MeLys]-ENG-NH2]
100 to 1000 | B3
10 to 25 | XNTWQXFXXKNA (Ac; Pen-Pen disulfide; Phe[4-(2-aminoethoxy)]; 2-Nal; Aib; Lys(Ac); βAla; NH2) [Ac-[Pen]-NTWQ-[Pen]-[Phe[4-(2-aminoethoxy)]-[2-Nal]-[Aib]-[Lys(Ac)]-N-[βAla]-NH2]

Target: IL23R_huFC (human) (UniProt Q5VWK5)
Test: human ELISA vs IL-23
Target sequence in this assay (Q5VWK5 24-353): as the sequence (Q5VWK5 24-353 limits assumed) above

IC50 [nM] | Binder
10 to 25 | Ac-[Abu]QTWQC[AEF][2Nal][Cit][Dap]NG-NH2 (thioether 1-6) [Ac-Cyclo-[[Abu]-QTWQC]-[Phe[4-(2-aminoethoxy)]]-[2-Nal]-[Cit]-[Dap]-NG-NH2]
< 10 | Ac-[Abu]QTWQC[AEF][2Nal][Aib]E[Dab](Ac)G-NH2 (thioether 1-6) [Ac-Cyclo-[[Abu]-QTWQC]-[Phe[4-(2-aminoethoxy)]]-[2-Nal]-[Aib]-E-[Dab(Ac)]-G-NH2]
25 to 100 | Ac-[Abu]QTWQC[AEF][2Nal][Orn][Dap]NG-NH2 (thioether 1-6) [Ac-Cyclo-[[Abu]-QTWQC]-[Phe[4-(2-aminoethoxy)]]-[2-Nal]-[Orn]-[Dap]-NG-NH2]
10 to 25 | Ac-[Abu]QTWQC[AEF][2Nal][Aib]E[Dap](Ac)G-NH2 (thioether 1-6) [Ac-Cyclo-[[Abu]-QTWQC]-[Phe[4-(2-aminoethoxy)]]-[2-Nal]-[Aib]-E-[Dap(Ac)]-G-NH2]
25 to 100 | Ac-[Abu]QTWQC[AEF][2Nal][Orn][Dap](Ac)NG-NH2 (thioether 1-6) [Ac-Cyclo-[[Abu]-QTWQC]-[Phe[4-(2-aminoethoxy)]]-[2-Nal]-[Orn]-[Dap(Ac)]-NG-NH2]
100 to 1000 | Ac-[Abu]QTWQC[Phe(4-OMe)(4)][2Nal][Orn][Dap]NG-NH2 (thioether 1-6) [Ac-Cyclo-[[Abu]-QTWQC]-[Phe(4-OMe)]-[2-Nal]-[Orn]-[Dap]-NG-NH2]
